The source of these data is patent publication US20200277385A1 (LABORATOIRE FRANCAIS DU FRACTIONNEMENT ET DES …, published 2020).

For assay [1], the target named is T1, human CD303 antigen expressed on cells (human, UniProt Q8WTT0 1-213).
T1 sequence: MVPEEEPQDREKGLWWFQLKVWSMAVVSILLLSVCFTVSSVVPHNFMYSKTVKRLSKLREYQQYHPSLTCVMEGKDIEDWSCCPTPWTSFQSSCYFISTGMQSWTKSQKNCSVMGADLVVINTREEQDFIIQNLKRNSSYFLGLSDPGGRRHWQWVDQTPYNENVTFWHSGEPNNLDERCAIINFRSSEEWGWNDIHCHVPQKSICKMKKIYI
Briefly: cell-based or functional assay.

The target in assay [2] is T2, FcγRIIIa (CD16a) (UniProt P08637 17-254, limits assumed).
T2 construct: whole, on cells; also called Fcγ receptor III
T2 sequence (P08637 17-254 limits assumed): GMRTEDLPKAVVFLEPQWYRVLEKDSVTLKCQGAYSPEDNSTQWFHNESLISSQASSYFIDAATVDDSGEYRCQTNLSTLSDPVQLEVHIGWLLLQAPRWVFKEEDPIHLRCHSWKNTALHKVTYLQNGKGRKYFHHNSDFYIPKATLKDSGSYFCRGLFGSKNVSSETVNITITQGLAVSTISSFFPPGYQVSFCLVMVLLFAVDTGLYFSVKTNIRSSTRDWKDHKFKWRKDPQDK
Briefly: competition with 3G8-PE for CD16 on NK cells, flow cytometry (second experiment). (A flow cytometer gives signals particle by particle.)

Assay [3] deals with T1, human CD303 antigen expressed on cells. Briefly: flow cytometry on CAL-1 cells (experiment with BIIB059). The method, then:
(§1) The CD303-expressing cells and the antibodies are prepared in diluent (PBS+1% FCS). 1·10⁵ cells are incubated at 4° C. for 30 minutes with 100 μL of antibody (anti-CD303 or negative control) at various concentrations (0-40 μg/mL, final concentration).
(§2) After washing with the diluent, the antibodies are visualized by addition of a phycoerythrin (PE)-coupled goat anti-mouse IgG F(ab′)₂ fragment (100 μL diluted to 1:100 in the diluent) for 45 minutes at 4° C. The cells are then washed and analyzed by flow cytometry (FC500, Beckman Coulter).

The target is the same in assay [4]. Briefly: cell-based or functional assay. This is another data set of the same source.
Assay [5] has the same target. Briefly: flow cytometry on CAL-1 cells transfected with CD303 (about 40,000-50,000 CD303/cell). The method, then:
as §1, §2

The target is the same in assay [6]. Briefly: cell-based or functional assay. The source holds these as a separate data set.
Assay [7] concerns the target T2, FcγRIIIa (CD16a). Briefly: competition with 3G8-PE for CD16 on NK cells, flow cytometry.
For assay [8], the target named is T1, human CD303 antigen expressed on cells. Briefly: flow cytometry on Fcγ chain-CD303 Jurkat cells. On the procedure: as §1, §2
Assay [9] shares this target. Briefly: flow cytometry on CAL-1 cells. The method, then: as §1, §2

A word on the IC50: it is the concentration at which inhibition is half-maximal. The EC50 is the concentration at which the effect is half-maximal. Read a high EC50 as lower potency in that assay.

B1: chimeric antibody 122A2 (antibody, human IgG1, kappa)
heavy: not shown
light: DIQMTQTTSSLSASLGDRVTISCRASQDISNYLNWYQQKPDGTVKLLIYYTSRLHSGVPSRFSGSGSGTDYSLTISNLDQEDIATYFCQQGNTLPWTFGGGTKLEIKRTVAAPSVFIFPPSDEQLKSGTASVVCLLNNFYPREAKVQWKVDNALQSGNSQESVTEQDSKDSTYSLSSTLTLSKADYEKHKVYACEVTHQGLSSPVTKSFNRGEC
notes: also called ch.122A2; ch122A2
In the case of B1, the “IC50 for IFN-α secretion from pDCs contained in PBMCs” value in assay [1] worked out at 0.959 ng/mL. Besides, the concentration for half-maximal inhibition (IC50) amounted to 13 µg/mL with FcγRIIIa (CD16a) [2] and 40.4 µg/mL with FcγRIIIa (CD16a) [7]. The EC50 in [3] was 0.06 µg/mL; in assay [5], 0.142 µg/mL; in [8], 0.128 µg/mL; in [9], 0.207 µg/mL. In addition, the “ADCC EC50, CAL-1 target cells” value in assay [4] was determined as 0.00093 µg/mL. Besides, in assay [6], the “ADCC EC50, Fcγ chain-CD303 Jurkat target cells with NK cells” value came to 0.000159 µg/mL. For the same molecule, the “ADCC Emax (% lysis), Fcγ chain-CD303 Jurkat target cells with NK cells” value in assay [6] was 42.4 % lysis. For the same molecule, the “Bmax (MFI)” value was 26.2 MFI in [8] and 25.2 MFI in [9].

B2: chimeric antibody 102E9 (antibody, human IgG1, kappa)
heavy: not shown
light: QIVLTQSPAIMSASPGEKVTITCSASSSVIYIHWFQQKPGTSPKLWIYSTSYLASGVPARFSGSGSGTSYSLTISRMEAEDAATYYCQQRRSYPFTFGGGTKLEIKRTVAAPSVFIFPPSDEQLKSGTASVVCLLNNFYPREAKVQWKVDNALQSGNSQESVTEQDSKDSTYSLSSTLTLSKADYEKHKVYACEVTHQGLSSPVTKSFNRGEC
notes: also called ch.102E9
Consider B2, for which the results for the half-maximal inhibitory concentration (IC50) in the assay with FcγRIIIa (CD16a) [2] and in the assay with FcγRIIIa (CD16a) [7] were 13 µg/mL and 37 µg/mL, respectively. Also, the EC50 in assay [3] came to 0.44 µg/mL; in assay [5], 0.363 µg/mL; in assay [8], 3.87 µg/mL; in [9], 1.81 µg/mL. Further, in assay [4], the “ADCC EC50, CAL-1 target cells” value was 0.0038 µg/mL. Moreover, the “ADCC EC50, Fcγ chain-CD303 Jurkat target cells with NK cells” value in assay [6] worked out at 0.00342 µg/mL. Besides, the “ADCC Emax (% lysis), Fcγ chain-CD303 Jurkat target cells with NK cells” value in assay [6] amounted to 38.9 % lysis. For the same molecule, the “Bmax (MFI)” value came to 24.9 MFI in assay [8] and 30.5 MFI in assay [9].
